According to PMC8949118, “The Transcription Factor SpoVG Is of Major Importance for Biofilm Formation of Staphylococcus epidermidis under In Vitro Conditions, but Dispensable for In Vivo Biofilm Formation”:

How the values were obtained:
[1] = biological target: T1, HAT-HA-SpoVG (Staphylococcus epidermidis 1457, UniProt Q8CML1 1-102); experiment: EMSA; 2-12 uM SpoVG, 2 mM Mg2+; 20 mM HEPES pH 8.0, 10 mM KCl, 2 mM MgCl2, 0.1 mM EDTA, 0.1 mM DTT, 50 ug/mL BSA, 10% glycerol; 200 fmol probe in 20 uL; 30 min room temperature; 2.5% agarose gel in cold TAE; details: protein: recombinant; tags: N-terminal HAT-HA-linker; label: DYE682; blunt
T1 sequence: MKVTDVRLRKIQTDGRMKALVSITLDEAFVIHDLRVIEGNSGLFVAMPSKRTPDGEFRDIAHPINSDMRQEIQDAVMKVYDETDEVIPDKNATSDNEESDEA

[2] = biological target: T1, HAT-HA-SpoVG; experiment: EMSA; 12 uM SpoVG, 2 mM Mg2+; 20 mM HEPES pH 8.0, 10 mM KCl, 2 mM MgCl2, 0.1 mM EDTA, 0.1 mM DTT, 50 ug/mL BSA, 10% glycerol; 200 fmol probe in 20 uL; 30 min room temperature; 2.5% agarose gel in cold TAE; details: protein: recombinant; tags: N-terminal HAT-HA-linker; label: DYE682; blunt
[3] = biological target: T1, HAT-HA-SpoVG; experiment: competition EMSA; 10x or 20x excess over labeled icaA probe; 20 mM HEPES pH 8.0, 10 mM KCl, 2 mM MgCl2, 0.1 mM EDTA, 0.1 mM DTT, 50 ug/mL BSA, 10% glycerol; 200 fmol probe in 20 uL; 30 min room temperature; 2.5% agarose gel in cold TAE; details: protein: recombinant; tags: N-terminal HAT-HA-linker; blunt

B1: icaA probe (dsDNA)
DNA 1: TAACAACATTCTATTGCAAATTGAAATACTTTCGATTAGCATATGCTTTACAACCTAACTAACGAAAGGTAGGTGAAAAA
DNA 2: TTTTTCACCTACCTTTCGTTAGTTAGGTTGTAAAGCATATGCTAATCGAAAGTATTTCAATTTGCAATAGAATGTTGTTA
[1]
  binding result: binds

B2: secA p control probe (dsDNA)
DNA 1: AGTATAATTTTCTAACTATAAATGATAAGATATATTGTTGTAGGCCAAACAGTTTTTTAGCTAAAGGAGCGAACGAAATG
DNA 2: CATTTCGTTCGCTCCTTTAGCTAAAAAACTGTTTGGCCTACAACAATATATCTTATCATTTATAGTTAGAAAATTATACT
[2]
  binding result: no binding

B3: unlabeled icaA probe (dsDNA)
DNA 1: TAACAACATTCTATTGCAAATTGAAATACTTTCGATTAGCATATGCTTTACAACCTAACTAACGAAAGGTAGGTGAAAAA
DNA 2: TTTTTCACCTACCTTTCGTTAGTTAGGTTGTAAAGCATATGCTAATCGAAAGTATTTCAATTTGCAATAGAATGTTGTTA
[3]
  binding result: binds
